Usually Kd stands for the constant that tells how readily two partners part at equilibrium. The low end stands for tighter binding, the high end for weaker binding.

Where no end group is shown, it is not given here. The star is where a group is joined. Biotin = O=C1N[C@H]2[C@H](CS[C@H]2CCCCC(=O)*)N1

Assay [1] addresses T1, Thrombin (UniProt P00734 328-622). The assay is described as follows: SPR (Biacore multiple cycle kinetics).
Assay [2] has as its target T1, Thrombin. Kind of assay: SPR (Biacore single cycle kinetics). Background: Surface plasmon resonance follows binding to a sensor surface in real time, without labels.

Biotin-GGGGSGGGGSRDPGRLIFQS [Biotin-GGGGSGGGGSRDPGRLIFQS] returned a Kd with Thrombin [1] of 36.6 nM.

B1: peptide encoded by linear DNA template 300-53-C (cow antibody scaffold with RDPGRLIFQS and Strep-tag II) (designed binder)
chain: MGCTSVHQETKKYQSRDPGRLIFQSSYTYNYEHVDVWGCGSAWSHPQFEKGS
B1 displayed a Kd with Thrombin [2] of 0.96 nM.

In turn, Biotin-GCTSVHQETKKYQSRDPGRLIFQSSYTYNYEHVDVWGCG (designed binder, cysteine pairing not given here) [Biotin-GCTSVHQETKKYQSRDPGRLIFQSSYTYNYEHVDVWGCG] yielded a Kd in the assay with Thrombin [1] of 0.78 nM.

The values above are taken from patent publication US20160312212A1 (published 2016).
